Data as given in article PMC11601465.

Legend:
[1] = biological target: Nyl50; assay: SEC
[2] = biological target: Nyl50; assay: AUC
[3] = biological target: Nyl50; assay: AUC; remark: listed apart in the source

stoichiometry N [1]: 2 | stoichiometry N [2]: 4 | stoichiometry N [3]: 2
Substance: Nyl50 (enzyme)
